We go through two molecules from article doi:10.1101/2021.02.02.429361 (bioRxiv, 2021).

In data set [1] the target is T1, ABI5 (His-ABI5) (Arabidopsis thaliana) (UniProt Q9SJN0).
T1 sequence: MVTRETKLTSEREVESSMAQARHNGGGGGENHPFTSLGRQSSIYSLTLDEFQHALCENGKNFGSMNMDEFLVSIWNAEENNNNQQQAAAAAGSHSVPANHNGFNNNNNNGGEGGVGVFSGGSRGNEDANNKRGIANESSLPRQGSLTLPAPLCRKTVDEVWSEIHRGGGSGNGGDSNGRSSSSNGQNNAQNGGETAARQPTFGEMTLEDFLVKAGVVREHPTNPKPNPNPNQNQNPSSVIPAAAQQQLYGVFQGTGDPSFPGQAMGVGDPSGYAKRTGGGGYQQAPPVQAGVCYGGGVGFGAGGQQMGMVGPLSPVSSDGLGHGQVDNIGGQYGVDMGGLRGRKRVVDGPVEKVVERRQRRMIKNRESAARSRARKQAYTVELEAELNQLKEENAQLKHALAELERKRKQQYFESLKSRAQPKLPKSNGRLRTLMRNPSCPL
Put plainly: EMSA. (In general: A gel shift assay detects complexes by their altered migration in electrophoresis.)

The next data set has as its target T2, His-AtABI5 (Arabidopsis thaliana, UniProt Q9SJN0 1-442).
T2 sequence (looked up): T1 sequence
The data set can be described thus: pull-down.

Turning to “AGTGTTATATAATTTTACGTAACGTAAAACAATACAAAATTTTAATTCCTGAACGAATAAAACGAGTATATTAATTAATTTATTGATCGTATTAAAACGAATATGATCCAATTAAGATTACAATTACTAAAATCCCCACACTATTATTGTCATTATTTAACTATGGCAGATAGATAGATACAGAACCGTAAAGGACGTTAGGAAGAGGAAGAACGTTGACGAAGTCAAC (double strand) [AtMPK3 promoter fragment (-402 to -256)]”, the binding entry in data set [1] is listed as “binds”.

B1: GST-AtMPK3 (enzyme, Arabidopsis thaliana, UniProt Q39023 1-370, looked up)
chain: MNTGGGQYTDFPAVETHGGQFISYDIFGSLFEITSKYRPPIIPIGRGAYGIVCSVLDTETNELVAMKKIANAFDNHMDAKRTLREIKLLRHLDHENIIAIRDVVPPPLRRQFSDVYISTELMDTDLHQIIRSNQSLSEEHCQYFLYQLLRGLKYIHSANIIHRDLKPSNLLLNANCDLKICDFGLARPTSENDFMTEYVVTRWYRAPELLLNSSDYTAAIDVWSVGCIFMELMNRKPLFPGKDHVHQMRLLTELLGTPTESDLGFTHNEDAKRYIRQLPNFPRQPLAKLFSHVNPMAIDLVDRMLTFDPNRRITVEQALNHQYLAKLHDPNDEPICQKPFSFEFEQQPLDEEQIKEMIYQEAIALNPTYG
For the molecule B1, the binding result with His-AtABI5 is on record as “binds”.
